The values that follow come from patent US20240190992A1 (UNIVERSITY PUBLIC CORPORATION OSAKA, published 2024).

Assay [1] concerns the target T1, EpCAM (epithelial cell adhesion molecule) (human, UniProt P16422 24-314).
T1 construct: whole, on cells; also called human EpCAM
T1 sequence (looked up): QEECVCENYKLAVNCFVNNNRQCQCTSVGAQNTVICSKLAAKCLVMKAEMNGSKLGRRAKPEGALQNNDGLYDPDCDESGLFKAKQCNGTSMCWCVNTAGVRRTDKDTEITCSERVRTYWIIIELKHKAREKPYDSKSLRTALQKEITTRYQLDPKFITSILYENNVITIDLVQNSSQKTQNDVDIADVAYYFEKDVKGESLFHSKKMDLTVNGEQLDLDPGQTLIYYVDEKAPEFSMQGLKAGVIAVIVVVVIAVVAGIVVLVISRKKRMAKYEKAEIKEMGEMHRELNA
The assay can be described thus: antibody affinity column on KMC07 whole cell extract, silver staining, mass analysis of the eluted band. The source says: To an affinity column, 5 clones of the anti-KMC07 antibody were bound and the KMC07 whole cell extract was flown to react the antibody with the antigen. Thereafter, the antibody was eluted and evaluated by silver staining. […] Among them, the broad band of 75 to 100 kDa (mark 4 in the figure) detected with 1B4G4 was similar to that in FIG. 10, and thus considered to be promising as a candidate antigen.

In a further assay the target is T2, mouse EpCAM (mouse, UniProt Q99JW5 24-315).
T2 construct: whole, on cells; also called EpCAM on the mouse fibroblast cell line PA6
T2 sequence (looked up): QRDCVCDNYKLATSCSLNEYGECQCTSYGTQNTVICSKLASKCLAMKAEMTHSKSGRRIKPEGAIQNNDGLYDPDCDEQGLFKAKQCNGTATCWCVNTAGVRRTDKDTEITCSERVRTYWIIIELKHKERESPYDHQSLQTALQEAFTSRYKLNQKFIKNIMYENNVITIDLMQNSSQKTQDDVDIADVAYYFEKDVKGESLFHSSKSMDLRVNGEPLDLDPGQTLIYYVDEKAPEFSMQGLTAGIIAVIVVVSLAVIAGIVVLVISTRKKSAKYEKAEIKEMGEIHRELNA
Put plainly: living cell immunostaining of KMC07 co-cultured with mouse PA6 cells. The source says:
Since it was considered that EpCAM was so specially modified with KMC07 that its expression pattern was changed, expression of EpCAM was confirmed using alive or fixed Triton X-100-treated KMC07 by immunostaining. At this time, the anti-KMC07 antibody 1F9D4 and a commercially available EpCAM antibody were used as primary antibodies. When KMC07 was immunostained as living cells, signals were obtained on the cell membrane of KMC07 and the cell membrane of PA6 with the anti-EpCAM antibody (indicated by the arrow in FIG. 12). The staining pattern of KMC07 was similar to that with 1F9D4. Since the anti-EpCAM antibody is known to cross human, mouse and rat EpCAMs, it is considered that the anti-EpCAM antibody also reacted to the mouse fibroblast cell line PA6.

B1: 1F9D4 (antibody III) (antibody, IgG2b, V domains shown)
VH: EVQLVESGGGLVQPGRSLKLSCAASGFTFSDYNMAWVRQAPKKGLEWVATINYDGISTYYRDSVKGRFTISRDNAKSTLYLQMDSLRSEDTATYYCARHSYVYYALGVPFAYWGQGTLVTVSS
VL: DIQMTQSPSLLSASVGDRVTINCKASQNINKYLNWYQQKLGEAPKLLIYNTNSLQTGIPSRFSGSGSGTDYTLTISSLQPEDFGTYFCFQHNSWPLTFGSGTKLEIK
notes: also called IF9D4; anti-KMC07 antibody 1F9D4
Regarding B1, the binding result in assay [1] was “binds”; with mouse EpCAM, “no binding”.
